In the DeepSol protein solubility set:

test: soluble on expression in E. coli; label from the status in PepcDB or PDB records

Soluble on expression in E. coli, not soluble:
MGSDKIHHHHHHMFYYNQYVRAQSLDEAYELYQKKPNFVLGGMLWLKMKNKTLGTAIDLCDLGLDQIDEDENEFRIGAYATLRQIETHEALNAYTHGAIAESVRHIVGVQFRNVATVGGSIWGRFGFSDVMTIFRALGAKVQLHKAGIMDLDEFAALPRTTRDVLVSVIVPKNAKGVVYLSQRNQSTDFPVLTCAVANRSGRYVAVIGASPYMAEPVWDEDGILDGIADAKTDGNAALTDNSETNAKIDKFAEYVAEHIRFGSNIRAGAEYREIICRVLTRRAVTQSLDICDDIKHEH
MGSDKIHHHHHHMGDAGGAGGNNMNIKQAKNEVKNTVKAYLSKDAHGEYVIPQIRQRPMLLIGPPGVGKTQIMEQIARECKIGLVAYTITHHTRQSAVGLPFIKEREYDGKSYSVTEYTMSEIIASVYEKMEATGLKEGILFIDEINCVSETLAPTMLQFLQCKTFGNQAVPKGWVIVAAGNPPEYNKSVRDFDMVTLDRVRYISIEADYQVWKEYARDVHIHDALLSYLELHPNNFYRVETDVDGMNFVTARGWEDLSSLLKVYEAGELAVTEEVIGEFIHHPDIAEDVYAYLEIYRKYNEDYGISDILSGNVKKSVYKRVFDADFDERITVVNLLLSGLTVVFSDVARERKMVQLWYEFLKEYRKSQRSTEEQHALYNSAVEQFSKNMEILKESSLILPKEYYIRQDVLKHIKGDFDTVMDDFTEESEKLSTMEDAAGEKLNHAFDFVEDVFSDDQEMLVFVTELTITPEISSFLAENECEKFDIYNEKLMVGSNRTRLLKELER
MGSDKIHHHHHHMGEGLSVIGFDADDTLWQNESFFRLTEDKFAELLADFAEGAHLRERLLALETKNIGHYGFGIKGFMLSMIETAVEVTEGRVDGSVISKILEMGQDMLRHPIHLLPHVEETLGTLSDRYPLVLITKGDLLHQEQKLAASGLGDLFAGVEIVSAKLPSTYDTAFSVHGVGPKHAMMVGNSMKSDIRPALDAGAFAVYVPHGLTWELEHTETPVGHPRYHELPDLGGLIDLIETVTD
MGSDKIHHHHHHMGGLGARHLYGSALGEHLVFKGGTSLSKAYQVIQRFSEDVDLTYDIRAIAPDLVGDDGEALPETRSEEKRWSSEVRKRLPNWVEGSVQPIIADALAAEALAAAIRVEGEKLFIDYAAATAGSGYVAPSVILEFGARSTGEPASLRDIACDASGLIEGVTFPTARPRVMHAERTFWEKATAIHVFCLQERLRGDRFARHWHDVARLDETGFTPSAFADRDLANAVARHKTMFFAEKAPDRTPIDYAAAVNGGLRLVPAGDGLKALEEDYARMVDDGLLLEDAEPFEALMARCADIAERANYIRE
MGSDKIHHHHHHMGIGIIIASHGKFAEGIHQSGSMIFGEQEKVQVVTFMPNEGPDDLYGHFNNAIQQFDADDEILVLADLWSGSPFNQASRVAGENPDRKMAIITGLNLPMLIQAYTERLMDAGAGVEQVAANIIKESKDGIKALPEDLNPVEETAATEKVVNALQGAIPAGTVIGDGKLKINLARVDTRLLHGQVATAWTPASKADRIIVASDEVAQDDLRKQLIKQAAPGGVKANVVPISKLIEASKDPRFGNTHALILFQTPQDALRAVEGGVEINELNVGSMAHSTGKTMVNNVLSMDKEDVATFEKLRDLGVTFDVRKVPNDSKKNLFELIQKTNIK
MGSDKIHHHHHHMGILQTMFIGFDYGTANCSVAVMRENTPQLLTLENGSTLLPSMLCAPTREAVSEWLYRHHDVPTHSDENQALLRRAIAANRDEDIEVLRNSVQFGLASLQQYVEDPQEVYFVKSPKSFLGASGLKPQQVALFEDLVCAMMLHIKLQAESQLPEQIDQAVIGRPINFQGLGGDEANAQAQGILERAAHRAGFRDVVFQFEPVAAGLDFEATLSEEKRVLVVDIGGGTTDCSLLLMGPQWRERADRQQSLLGHSGCRIGGNDLDIALAFKCLMPLLGMGGETEKGTALPILPWWNAVAINDVPAQSDFYSTANGRLLNDLLRSARDADKVALLLKVWRQRLSYRLVRSAEESKIALSSAASVETALPFIQDDLATAIAQQGLEAALDQPLTRIMEQVRLALDSSQTTPDVIYLTGGSARSPLIKKALAAQLPGIPLAGGDDFGSVTAGLARWAQVVFR
